# Experimental data taken from patent US7442378B2, “Attenuated circovirus” (The University of Melbourne, priority 2001, dated 2008).
# “Also recorded” adds a separate entry of the source.
# Assays:
# CAV VP2-GST PTPase = assay: Sodium orthovanadate inhibition of PTPase activity; assay type: biochemical, Chicken anaemia virus
# Protocol: Stock 1 mM […] was made in distilled water and adjusted to pH 10 with sulphuric acid. Once dissolved, stock […] was added to AB and TB buffer at a ratio of 1:1:1 and adjusted to pH 7. Inhibition studies were conducted with 0.1 mM, 0.01 mM and 0.001 mM of sodium orthovanadate. All other reaction conditions were as described above. Assays were with 10 nmol substrate and 9 μg CAV VP2-GST and were in triplicate for each concentration of inhibitor.
# [1] = system: T1, phosphopeptide substrate H-Glu-Asn-Asp-Tyr(PO3H2)-Ile-Asn-Ala-Ser-Leu-OH
# T1 sequence: ENDYINASL
# [2] = known PTPases, comparison values; cited from earlier work
# [3] = molecular target: T2, phosphopeptide substrate H-Glu-Asn-Asp-Tyr(PO3H2)-Ile-Asn-Ala-Ser-Leu-OH
# T2 chain: ENDYINASL
# [4] = system: peptide substrate ENDY(Pi)INASL; assay: Enzyme pH optimum of CAV VP2-GST PTPase; assay type: biochemical
# Protocol: Triplicate reactions were set up at pH 4, pH 5, pH 6, pH 7, pH 8 and pH 9. Assays were with 10 nmol substrate and 9 μg CAV VP2-GST and all other reaction conditions were as described above. Prior to addition of the malachite green reagent the pH was neutralised to pH 7 with either sulphuric acid or sodium hydroxide.
# [5] = system: peptide substrate ENDY(Pi)INASL; assay type: biochemical
molecule,measurement,setting,value
[Na+].[Na+].[Na+].[O]=[V]([O-])([O-])[O-] [sodium orthovanadate],Inhibition of VP2-GST PTPase activity,CAV VP2-GST PTPase,specifically inhibited; also recorded: completely inhibited
same,Orthovanadate concentration giving maximal inhibition of CAV VP2 activity (as low as),CAV VP2-GST PTPase,0.001 mM
TLMV ORF2-GST fusion protein,PTPase activity (steady state),[1],The steady state activity was equivalent to that demonstrated for CAV VP2
PTP1B: low Mr PTPase cited for comparison [reference compound],Vmax,[2],20 000 U/mg min
CAV VP2-GST fusion protein (protein) MHGNGGQPAAGGSESALSREGQPGPSGAAQGQVISNERSPRRYSTRTINGVQATNKFTAVGNPSLQRDPDWYRWNYSHSIAVWLRECSRSHAKICNCGQFRKHWFQECAGLEDRSTQASLEEAILRPLRVQGKRAKRKLDYHYSQPTPNRKKVYKTVRWQDELADREADFTPSEEDGGTTSSDFDEDINFDIGGDSGIVDELLGRPFTTPAPVRIV,"Km (PTPase assay, malachite green, Lineweaver-Burk plot)",[3],Km to be 16.95 µM
same,"Vmax (PTPase assay, malachite green, Lineweaver-Burk plot)",[3],Vmax was estimated to be 14 280 U/mg min
same,"Vo with 0.001 mM orthovanadate, 10 nmol substrate",[3],0.002
same,"Vo with 0.01 mM orthovanadate, 10 nmol substrate",[3],0
same,"Vo with 0.1 mM orthovanadate, 10 nmol substrate",[3],0
same,"Vo without orthovanadate, 10 nmol substrate",[3],5.61
same,"mean Vo (nmol) at pH 4, 10 nmol substrate",[3],1.75 nmol
same,"mean Vo (nmol) at pH 5, 10 nmol substrate",[3],1.47 nmol
same,"mean Vo (nmol) at pH 6, 10 nmol substrate",[3],5.64 nmol
same,"mean Vo (nmol) at pH 7, 10 nmol substrate",[3],5.61 nmol
same,"mean Vo (nmol) at pH 8, 10 nmol substrate",[3],1.83 nmol
same,"mean Vo (nmol) at pH 9, 10 nmol substrate",[3],0 nmol
"VP2-GST: CAV viral protein 2 produced as fusion with glutathione S-transferase in E. coli (protein, left off: a dimerising Fc or GST, CAV viral protein 2 produced as fusion with glutathione S-transferase in E. coli) MHGNGGQPAAGGSESALSREGQPGPSGAAQGQVISNERSPRRYSTRTINGVQATNKFTAVGNPSLQRDPDWYRWNYSHSIAVWLRECSRSHAKICNCGQFRKHWFQECAGLEDRSTQASLEEAILRPLRVQGKRAKRKLDYHYSQPTPNRKKVYKTVRWQDELADREADFTPSEEDGGTTSSDFDEDINFDIGGDSGIVDELLGRPFTTPAPVRIV","mean Vo, PTPase activity","[4]; pH 4, S 10 nmol",1.746 nmol
same,"mean Vo, PTPase activity","[4]; pH 5, S 10 nmol",1.474 nmol
same,"mean Vo, PTPase activity","[4]; pH 6, S 10 nmol",5.636 nmol
same,"mean Vo, PTPase activity","[4]; pH 7, S 10 nmol",5.612 nmol
same,"mean Vo, PTPase activity","[4]; pH 8, S 10 nmol",1.829 nmol
same,"mean Vo, PTPase activity","[4]; pH 9, S 10 nmol",0.000 nmol
same,pH of optimal PTPase activity,"[4]; reactions at pH 4 to pH 9, listed as CAV VP2",6-7
same,1/Vmax,[5]; linear regression of double reciprocal plot,0.060
same,Vmax,"[5]; substrate ENDY(Pi)INASL, Lineweaver-Burk plot, Vo at 1 min",14 280 U/mg min
"CD45: high Mr PTPase from human spleen cited for comparison (protein, UniProt P08575 26-1306, looked up) Receptor-type …: QSPTPSPTGLTTAKMPSVPLSSDPLPTHTTAFSPASTFERENDFSETTTSLSPDNTSTQVSPDSLDNASAFNTTGVSSVQTPHLPTHADSQTPSAGTDTQTFSGSAANAKLNPTPGSNAISDVPGERSTASTFPTDPVSPLTTTLSLAHHSSAALPARTSNTTITANTSDAYLNASETTTLSPSGSAVISTTTIATTPSKPTCDEKYANITVDYLYNKETKLFTAKLNVNENVECGNNTCTNNEVHNLTECKNASVSISHNSCTAPDKTLILDVPPGVEKFQLHDCTQVEKADTTICLKWKNIETFTCDTQNITYRFQCGNMIFDNKEIKLENLEPEHEYKCDSEILYNNHKFTNASKIIKTDFGSPGEPQIIFCRSEAAHQGVITWNPPQRSFHNFTLCYIKETEKDCLNLDKNLIKYDLQNLKPYTKYVLSLHAYIIAKVQRNGSAAMCHFTTKSAPPSQVWNMTVSMTSDNSMHVKCRPPRDRNGPHERYHLEVEAGNTLVRNESHKNCDFRVKDLQYSTDYTFKAYFHNGDYPGEPFILHHSTSYNSKALIAFLAFLIIVTSIALLVVLYKIYDLHKKRSCNLDEQQELVERDDEKQLMNVEPIHADILLETYKRKIADEGRLFLAEFQSIPRVFSKFPIKEARKPFNQNKNRYVDILPYDYNRVELSEINGDAGSNYINASYIDGFKEPRKYIAAQGPRDETVDDFWRMIWEQKATVIVMVTRCEEGNRNKCAEYWPSMEEGTRAFGDVVVKINQHKRCPDYIIQKLNIVNKKEKATGREVTHIQFTSWPDHGVPEDPHLLLKLRRRVNAFSNFFSGPIVVHCSAGVGRTGTYIGIDAMLEGLEAENKVDVYGYVVKLRRQRCLMVQVEAQYILIHQALVEYNQFGETEVNLSELHPYLHNMKKRDPPSEPSPLEAEFQRLPSYRSWRTQHIGNQEENKSKNRNSNVIPYDYNRVPLKHELEMSKESEHDSDESSDDDSDSEEPSKYINASFIMSYWKPEVMIAAQGPLKETIGDFWQMIFQRKVKVIVMLTELKHGDQEICAQYWGEGKQTYGDIEVDLKDTDKSSTYTLRVFELRHSKRKDSRTVYQYQYTNWSVEQLPAEPKELISMIQVVKQKLPQKNSSEGNKHHKSTPLLIHCRDGSQQTGIFCALLNLLESAETEEVVDIFQVVKALRKARPGMVSTFEQYQFLYDVIASTYPAQNGQVKKNNHQEDKIEFDNEVDKVKQDANCVNPLGAPEKLPEAKEQAEGSEPTSGTEGPEHSVNGPASPALNQGS",Vmax,[2],1 000 U/mg min
